This test concerns the target COVID-19 virus main protease (M^pro) (COVID-19 virus). Put plainly: crystal structure.

The stoichiometry N is a count of units in the complex or per binding partner.

In the case of “COVID-19 virus main protease (M^pro) (enzyme)”, the stoichiometry N came out at 2.
